This passage reports binding results from article PMC6053526.

What all share (test): EMSA
Holding throughout (settings): 5x buffer (3 uL in 14 uL): 20% glycerol, 5 mM MgCl2, 2.5 mM EDTA, 2.5 mM DTT, 250 mM NaCl, 50 mM Tris-HCl pH 7.5, 0.25 mg/ml poly(dI-dC); 0.5 ug protein; 10 min
A general note: A gel shift assay detects complexes by their altered migration in electrophoresis.

Data set [1] has as its target GST-AtWRKY50-C (Arabidopsis thaliana) (UniProt Q8VWQ5).
Data set [2] deals with T1, TGA2-His (Arabidopsis thaliana) (UniProt P43273).
T1 sequence: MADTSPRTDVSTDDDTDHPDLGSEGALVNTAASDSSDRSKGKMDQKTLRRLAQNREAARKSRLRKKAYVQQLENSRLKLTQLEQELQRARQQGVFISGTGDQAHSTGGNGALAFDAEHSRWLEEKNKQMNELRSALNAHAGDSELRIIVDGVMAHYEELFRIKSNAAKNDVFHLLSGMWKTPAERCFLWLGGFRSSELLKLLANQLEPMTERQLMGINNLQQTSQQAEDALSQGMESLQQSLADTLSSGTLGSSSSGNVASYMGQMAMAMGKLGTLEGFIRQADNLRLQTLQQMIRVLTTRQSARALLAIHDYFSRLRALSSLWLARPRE

Data set [3] concerns the target GST-AtWRKY50-C;TGA2-His (Arabidopsis thaliana;Arabidopsis thaliana) (UniProt Q8VWQ5+P43273).

Sequence of GST-AtWRKY50-C (Arabidopsis thaliana) (Q8VWQ5 86-173): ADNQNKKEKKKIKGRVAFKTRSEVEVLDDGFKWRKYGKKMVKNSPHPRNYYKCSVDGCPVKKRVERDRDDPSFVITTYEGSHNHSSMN
Sequence of GST-AtWRKY50-C;TGA2-His (Arabidopsis thaliana;Arabidopsis thaliana) (Q8VWQ5 86-173, one chain of several): as the sequence (Q8VWQ5 86-173) above

As to “ATCGGATCCGGTGATCTATTGACTGTTTCTCTACGTCACTATTTTACTTACGTCATAGATGTGGCGGCATATA (double strand) [ABC]”, the binding entry in data set [1] and in data set [2] was “binds” throughout.

On to “CATCTATTGCGTAAGTAAAATAGTGACGTAGAGAAACAGTCAATAGATCACCGGATCCGAT (double strand) [ABCm2]”, for which the binding result in data set [2] was “binds more weakly”.

Regarding “CTCTACGCAACTATTTTACTTACGTCATAGATGTGGCGGCATATATTCTTCAGGACTTTTCAGATCTAGGC (double strand) [BCDm1]”, the binding entry in data set [3] and in data set [2] was “binds” in each case.

For “TTTCTCTACGTCACTATTTTACTTACGTCATAGATGTGGCGGCATATATTCTTCAGGACTTTTCAGATCTAGGC (double strand) [BCD]”, the binding entry in data set [1], in data set [3] and in data set [2] was “binds” in each case.
